Measurements from PMC3838125, “Crystal Structure of Venezuelan Hemorrhagic Fever Virus Fusion Glycoprotein Reveals a Class 1 Postfusion Architecture with Extensive Glycosylation” (Journal of Virology, 2013).

Biological target: the molecule itself
Assay: crystal structure

B1: Guanarito virus (GTOV) fusion glycoprotein GP2, residues 292 to 418 (domain or fragment)
chain: DSEFCDMLRLFDFNKNAIEKLNNQTKTAVNMLTHSINSLISDNLLMRNKLKEILKVPYCNYTRFWYINHTKSGEHSLPRCWLVSNGSYLNESDFRNEWILESDHLIAEMLSKEYQDRQGKTPLTLVD
notes: also called GTOV GP2
stoichiometry N: 3
